# In article PMC5240642:
# Target: FcγRIIIa F158 extracellular domain (UniProt P08637)
# Experiment: SPR
# UniProt P08637, sequence (P08637 17-208): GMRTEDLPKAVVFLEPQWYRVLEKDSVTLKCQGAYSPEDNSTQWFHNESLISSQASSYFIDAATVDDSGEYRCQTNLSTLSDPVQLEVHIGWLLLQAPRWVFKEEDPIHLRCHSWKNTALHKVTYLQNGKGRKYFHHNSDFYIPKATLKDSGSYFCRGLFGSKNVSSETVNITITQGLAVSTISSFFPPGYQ
row,Substance,Kd
1,Humira® complexed with TNF homotrimer (2:1 molar ratio) (from UniProt P01375 77-233),6.9 nM
2,MSB11022 complexed with TNF homotrimer (2:1 molar ratio) (from UniProt P01375 77-233),8 nM
